Positions count from the first letter of the chain named. Names and notes keep the numbering of the source. Blank lines part the entries; values can stand above or below the binder they belong to.
Columns and labels:
[1] = target: T1, Recombinant Human DLL4 (delta-like protein 4) (human, UniProt Q9NR61 27-524); assay: ECL (Meso Scale Discovery) binding assay on immobilised recombinant human DLL4; Fab concentration not given
T1 construct: Bought recombinant protein (R&D Systems Cat#1506-D4/CF); also called rHuman DLL4; Delta-like 4

[2] = target: T2, rHuman ErbB2/Fc Chimera, CF (R&D Systems Cat#1129-ER) (human, UniProt P04626 23-652); assay: ECL multispot (MSD) binding assay, antigens spotted on plate, 20 nM Fab;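 also: fab incubated 1 h at 20 °C on antigen-spotted wells, bound Fab detected by TAG-labelled antibody, ratio of 4 or more over blank counted as a hit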
T2 construct: Bought recombinant protein; also called human epidermal growth factor 2 receptor; Fc part of the bought chimera not given

[3] = target: T3, rHuman EGF R/Fc Chimera, CF (R&D Systems Cat#344-ER) (human, UniProt P00533 25-645); assay: as above
T3 construct: Bought recombinant protein; also called epidermal growth factor receptor; Fc part of the bought chimera not given

[4] = target: T4, rHuman CD44/Fc Chimera, CF (R&D Systems Cat#3660-CD) (human, UniProt P16070 21-220); assay: as above
T4 construct: Bought recombinant protein; Fc part of the bought chimera not given

[5] = target: T5, rHuman IGF-1 sR, (IGF-1 sR), CF (R&D Systems Cat#391-GR) (human, UniProt P08069 31-932); assay: as above
T5 construct: Bought recombinant soluble receptor; The column head prints only 'IGF-1'; also called insulin-like growth factor-1 soluble receptor

[6] = target: T6, rHuman P-Cadherin/Fc Chimera, CF (R&D Systems Cat#861-PC) (human, UniProt P22223 108-654); assay: as above
T6 construct: Bought recombinant protein; Fc part of the bought chimera not given

[7] = target: T7, rHuman Erythropoietin R/Fc Chimera, CF (R&D Systems Cat#963-ER) (human, UniProt P19235 25-250); assay: as above
T7 construct: Bought recombinant protein; also called EPO R; Epo R; Fc part of the bought chimera not given
T7 sequence (looked up): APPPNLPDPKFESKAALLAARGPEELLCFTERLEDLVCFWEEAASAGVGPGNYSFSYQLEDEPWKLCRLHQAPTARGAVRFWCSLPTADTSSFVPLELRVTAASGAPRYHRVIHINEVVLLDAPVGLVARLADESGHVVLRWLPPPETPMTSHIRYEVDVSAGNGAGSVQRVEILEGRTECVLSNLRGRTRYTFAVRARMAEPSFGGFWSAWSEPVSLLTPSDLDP

[8] = target: T8, Recombinant Human DLL4 (R&D Systems Cat#1506-D4/CF) (human, UniProt Q9NR61 27-524); assay: as above
T8 construct: Bought recombinant protein; also called delta-like protein 4; rHuman DLL4

[9] = target: T9, rHuman ErbB2/Fc Chimera, CF (R&D Systems Cat#1129-ER) (human, UniProt P04626 23-652); assay: ECL (MSD) multispot binding assay, antigen spotted on plate, 20 nM Fab;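 also: purified Fab incubated 1 h at 20 °C on antigen-spotted plate, bound Fab revealed with TAG detection antibody, ECL read, antigen signal divided by same-well blank, ratio ≥4 counted as hit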
T9 construct: Bought reagent; also called human epidermal growth factor 2 receptor; Fc part of the bought chimera not given

[10] = target: T10, rHuman Notch-1/Fc Chimera, CF (R&D Systems Cat#3647-TK) (human, UniProt P46531 19-526); assay: as above
T10 construct: Bought reagent; Fc part of the bought chimera not given

[11] = target: T11, rHuman CD44/Fc Chimera, CF (R&D Systems Cat#3660-CD) (human, UniProt P16070 21-220); assay: as above
T11 construct: Bought reagent; Fc part of the bought chimera not given

[12] = target: T12, rHuman IGF-1 sR, CF (R&D Systems Cat#391-GR) (human, UniProt P08069 31-932); assay: as above
T12 construct: Bought soluble receptor; also called insulin-like growth factor-1 soluble receptor

[13] = target: T13, rHuman P-Cadherin/Fc Chimera, CF (R&D Systems Cat#861-PC) (human, UniProt P22223 108-654); assay: as above
T13 construct: Bought reagent; Fc part of the bought chimera not given

[14] = target: T14, rHuman Erythropoietin R/Fc Chimera, CF (R&D Systems Cat#963-ER) (human, UniProt P19235 25-250); assay: as above
T14 construct: Bought reagent; also called EPO R; EPO R/Fc; Fc part of the bought chimera not given
T14 sequence (looked up): T7 sequence (looked up)

[15] = target: T15, Recombinant Human DLL4 (R&D Systems Cat#1506-D4/CF) (human, UniProt Q9NR61 27-524); assay: as above
T15 construct: Bought recombinant protein; also called delta-like protein 4; rHuman DLL4

[16] = target: T16, rHuman ErbB2/Fc Chimera, CF (R&D Systems Cat#1129-ER) (human, UniProt P04626 23-652); assay: as above
T16 construct: Bought recombinant protein; also called human epidermal growth factor 2 receptor; Fc part of the bought chimera not given

[17] = target: T17, rHuman EGF R/Fc Chimera, CF (R&D Systems Cat#344-ER) (human, UniProt P00533 25-645); assay: as above
T17 construct: Bought recombinant protein; also called epidermal growth factor receptor; Fc part of the bought chimera not given

[18] = target: T18, rHuman IGF-1 sR, (IGF-1 sR), CF (R&D Systems Cat#391-GR) (human, UniProt P08069 31-932); assay: as above
T18 construct: Bought recombinant soluble receptor; also called insulin-like growth factor-1 soluble receptor

[19] = target: T19, rHuman P-Cadherin/Fc Chimera, CF (R&D Systems Cat#861-PC) (human, UniProt P22223 108-654); assay: as above
T19 construct: Bought recombinant protein; Fc part of the bought chimera not given

[20] = target: T20, Recombinant Human DLL4 (R&D Systems Cat#1506-D4/CF) (human, UniProt Q9NR61 27-524); assay: as above; remark: listed apart in the source
T20 construct: Bought recombinant protein; also called delta-like protein 4; rHuman DLL4

B5: Fab VH3-23_IGHD2-21*01>3_IGHJ6*01 H100E/S108P/Y113G Y110I & V2-13_IGLJ2*01 (Fab, V domains shown)
VH: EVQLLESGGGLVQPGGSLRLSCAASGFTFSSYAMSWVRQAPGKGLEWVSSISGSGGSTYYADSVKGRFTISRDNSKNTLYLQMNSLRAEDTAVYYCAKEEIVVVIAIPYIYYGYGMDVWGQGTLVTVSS
VL: SSELTQDPAVSVALGQTVRITCQGDSLRSYYASWYQQKPGQAPVLVIYGKNNRPSGIPDRFSGSSSGNTASLTITGAQAEDEADYYCNSRDSSGNHLVVFGGGTKLTVL
notes: Tested as Fab made in E. coli: VH joined to CH1 (His and Flag tags), VL joined to lambda CL; also called EPG Y110I
ECL multispot signal (ratio to blank; column not labelled) [2]: 11.4
ECL multispot signal (ratio to blank; column not labelled) [3]: 8.6
ECL multispot signal (ratio to blank; column not labelled) [4]: 1.7
ECL multispot signal (ratio to blank; column not labelled) [5]: 1.4
ECL multispot signal (ratio to blank; column not labelled) [6]: 39
ECL multispot signal (ratio to blank; column not labelled) [7]: 73.7
ECL multispot signal (ratio to blank; column not labelled) [8]: 2

B6: Fab VH3-23_IGHD2-21*01>3_IGHJ6*01 H100E/S108P/Y113G Y110T & V2-13_IGLJ2*01 (Fab, V domains shown)
VH: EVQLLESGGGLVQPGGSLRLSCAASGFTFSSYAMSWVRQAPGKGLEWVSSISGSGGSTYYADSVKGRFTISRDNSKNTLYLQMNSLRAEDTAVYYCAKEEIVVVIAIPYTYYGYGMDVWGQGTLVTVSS
VL: B5 VL
notes: Tested as Fab made in E. coli: VH joined to CH1 (His and Flag tags), VL joined to lambda CL; also called EPG Y110T
ECL multispot signal (ratio to blank; column not labelled) [2]: 0.8
ECL multispot signal (ratio to blank; column not labelled) [3]: 1.8
ECL multispot signal (ratio to blank; column not labelled) [4]: 1.6
ECL multispot signal (ratio to blank; column not labelled) [5]: 1.8
ECL multispot signal (ratio to blank; column not labelled) [6]: 1
ECL multispot signal (ratio to blank; column not labelled) [8]: 1.8

B7: Fab VH3-23_IGHD2-21*01>3_IGHJ6*01 H100E/S108P/Y113G Y112R & V2-13_IGLJ2*01 (Fab, V domains shown)
VH: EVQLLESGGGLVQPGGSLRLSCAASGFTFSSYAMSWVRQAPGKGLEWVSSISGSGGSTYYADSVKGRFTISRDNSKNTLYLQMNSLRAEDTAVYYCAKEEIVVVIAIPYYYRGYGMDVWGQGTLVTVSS
VL: B5 VL
notes: Tested as Fab made in E. coli (VH-CH1 with His and Flag tags from plasmid A; lambda CL from plasmid E); also called EPG Y112R
ECL multispot value [9]: 5.9
ECL multispot value [10]: 2.7
ECL multispot value [11]: 1.6
ECL multispot value [12]: 1.5
ECL multispot value [13]: 30
ECL multispot value [14]: 85.1
ECL multispot value [15]: 2.6

B8: Fab VH3-23_IGHD2-21*01>3_IGHJ6*01 H100E/S108P/Y113G Y110W & V2-13_IGLJ2*01 (Fab, V domains shown)
VH: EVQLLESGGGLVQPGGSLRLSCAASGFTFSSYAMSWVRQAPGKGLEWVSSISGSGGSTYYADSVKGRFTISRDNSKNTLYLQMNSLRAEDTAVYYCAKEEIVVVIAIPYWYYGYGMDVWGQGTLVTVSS
VL: B5 VL
notes: Tested as Fab made in E. coli: VH joined to CH1 (His and Flag tags), VL joined to lambda CL; also called EPG Y110W
ECL multispot signal (ratio to blank; column not labelled) [2]: 16.5
ECL multispot signal (ratio to blank; column not labelled) [3]: 7.6
ECL multispot signal (ratio to blank; column not labelled) [6]: 38.8
ECL multispot signal (ratio to blank; column not labelled) [7]: 117

Now from value to binder:

ECL signal [1]: 7550
B1: Fab VH5-51_IGHD5-18*01>3_IGHJ4*01 G100K/G104T (H:KT) & V3-4_IGLJ1*01 T78S (Fab, V domains shown)
VH: EVQLVQSGAEVKKPGESLKISCKGSGYSFTSYWIGWVRQMPGKGLEWMGIIYPGDSDTRYSPSFQGQVTISADKSISTAYLQWSSLKASDTAMYYCARRKYSYTYDYFDYWGQGTLVTVSS
VL: QTVVTQEPSFSVSPGGTVTLTCGLSSGSVSTSYYPSWYQQTPGQAPRTLIYSTNTRSSGVPDRFSGSILGNKAALTISGAQADDESDYYCVLYMGSGISYVFGTGTKVTVL
notes: Fab with CH1 and lambda CL from the expression plasmids; also called G100K/G104T & T78S

ECL signal [1]: 12200
B2: Fab VH5-51_IGHD5-18*01>3_IGHJ4*01 G100K/G104T (H:KT) & V3-4_IGLJ1*01 S25A, A116T (Fab, V domains shown)
VH: B1 VH
VL: QTVVTQEPSFSVSPGGTVTLTCGLASGSVSTSYYPSWYQQTPGQAPRTLIYSTNTRSSGVPDRFSGSILGNKAALTITGAQADDESDYYCVLYMGSGISYVFGTGTKVTVLG
notes: also called G100K/G104T & S25A/A116T; named S52A/A116T in the running text

ECL signal [1]: 9620
B3: Fab VH5-51_IGHD5-18*01>3_IGHJ4*01 G100K/G104T (H:KT) & V3-4_IGLJ1*01 T78K (Fab, V domains shown)
VH: B1 VH
VL: B1 VL with S78K
notes: Fab with CH1 and lambda CL from the expression plasmids; also called G100K/G104T & T78K

ECL signal [1]: 9550
B4: Fab VH5-51_IGHD5-18*01>3_IGHJ4*01 G100K/G104T (H:KT) & V3-4_IGLJ1*01 T78L (Fab, V domains shown)
VH: B1 VH
VL: B1 VL with S78L
notes: Fab with CH1 and lambda CL from the expression plasmids; also called G100K/G104T & T78L

ECL signal/blank ratio [16]: 26.5
ECL signal/blank ratio [17]: 16.3
ECL signal/blank ratio [18]: 1.4
ECL signal/blank ratio [19]: 49.2
ECL signal/blank ratio [20]: 2.8
B9: Fab VH3-23_IGHD2-21*01>3_IGHJ6*01 H100E/S108P/Y113G/Y111W & V2-13_IGLJ2*01 (Fab, V domains shown)
VH: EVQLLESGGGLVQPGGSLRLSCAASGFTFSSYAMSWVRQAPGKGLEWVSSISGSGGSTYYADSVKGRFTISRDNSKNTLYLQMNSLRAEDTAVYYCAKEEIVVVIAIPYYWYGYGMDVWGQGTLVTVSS
VL: B5 VL
notes: Fab made in E. coli: VH joined to CH1 (with His and Flag tags, plasmid A) and VL to lambda CL (plasmid E); also called EPG Y111W

From patent US20120316071A1 (published 2012)
